Patent US20180037654A1 (ADURO BIOTECH HOLDINGS EUROPE B V, published 2018)

B1: hCTLA4.27H1L1 (antibody, human IgG4 S228P, kappa, V domains shown)
VH: EVQLLQSGAVLARPGTSVKISCKASGYSFTTYWMNWVKQRPGQGLEWIGMIHPSDSETSLNQAFKDKAKLTAATSASIAYLEFSSLTNEDSAVYYCARMGRRNPYYFDYWGQGTLVTVSS
VL: DIQMTQSPSSLSASVGDRVTITCRPSENLYTNLAWYQQKPGKAPKLLLYGATNLADGVPSRFSGSGSGTDYTLTISSLQPEDFATYYCQHLWGTPFTFGQGTKLEIKR
notes: Humanized, human IgG4 (S228P) kappa; H1 read as hCTLA4.27VH1, L1 as hCTLA4.27VL1
B2: hCTLA4.27H1L2 (antibody, human IgG4 S228P, kappa, V domains shown)
VH: EVQLLQSGAVLARPGTSVKISCKASGYSFTTYWMNWVKQRPGQGLEWIGMIHPSDSETSLNQAFKDKAKLTAATSASIAYLEFSSLTNEDSAVYYCARMGRRNPYYFDYWGQGTLVTVSS
VL: DIQMTQSPSSLSASVGDRVTITCRPSENLYTNLAWYQQKPGKAPKLLIYGATNLADGVPSRFSGSGSGTEFSLSISSLQPEDFATYYCQHLWGTPFTFGGGTKVEIKR
notes: Humanized, human IgG4 (S228P) kappa; H1 read as hCTLA4.27VH1, L2 as hCTLA4.27VL2
B3: hCTLA4.27H1L3 (antibody, human IgG4 S228P, kappa, V domains shown)
VH: EVQLLQSGAVLARPGTSVKISCKASGYSFTTYWMNWVKQRPGQGLEWIGMIHPSDSETSLNQAFKDKAKLTAATSASIAYLEFSSLTNEDSAVYYCARMGRRNPYYFDYWGQGTLVTVSS
VL: DIQMTQSPSSLSASVGDTVTITCRPSENLYTNLAWYQQKPGKAPKLLLYGATNLADGVPSRFSGSGSGTDYTLTISSLQSEDFATYYCQHLWGTPFTFGQGTKLEIKR
notes: Humanized, human IgG4 (S228P) kappa; H1 read as hCTLA4.27VH1, L3 as hCTLA4.27VL3
B4: hCTLA4.27H1L5 (antibody, human IgG4 S228P, kappa, V domains shown)
VH: EVQLLQSGAVLARPGTSVKISCKASGYSFTTYWMNWVKQRPGQGLEWIGMIHPSDSETSLNQAFKDKAKLTAATSASIAYLEFSSLTNEDSAVYYCARMGRRNPYYFDYWGQGTLVTVSS
VL: DIQMTQAPSSLSASVGDRVTITCRPSENLYTNLAWYQQKPGKAPKLLLYGATNLADGVPSRFSGSGSGTDYTLTISSLQAEDFATYYCQHLWGTPFTFGGGTKLEIKR
notes: Humanized, human IgG4 (S228P) kappa; H1 read as hCTLA4.27VH1, L5 as hCTLA4.27VL5
B5: hCTLA4.27H5L1 (antibody, human IgG4 S228P, kappa, V domains shown)
VH: EVQLLQAGAVLARPGTSVKISCKASGYSFTTYWMNWVKQRPGKGLEWIGMIHPSDSETSLNQAFKDKAKLTAATSASIAYLEFSSLTNEDSAVYYCARIGRRNPYYFDYWGQGTLVTVSS
VL: DIQMTQSPSSLSASVGDRVTITCRPSENLYTNLAWYQQKPGKAPKLLLYGATNLADGVPSRFSGSGSGTDYTLTISSLQPEDFATYYCQHLWGTPFTFGQGTKLEIKR
notes: Humanized, human IgG4 (S228P) kappa; H5 read as hCTLA4.27VH5, L1 as hCTLA4.27VL1
B6: hCTLA4.27H5L2 (antibody, human IgG4 S228P, kappa, V domains shown)
VH: EVQLLQAGAVLARPGTSVKISCKASGYSFTTYWMNWVKQRPGKGLEWIGMIHPSDSETSLNQAFKDKAKLTAATSASIAYLEFSSLTNEDSAVYYCARIGRRNPYYFDYWGQGTLVTVSS
VL: DIQMTQSPSSLSASVGDRVTITCRPSENLYTNLAWYQQKPGKAPKLLIYGATNLADGVPSRFSGSGSGTEFSLSISSLQPEDFATYYCQHLWGTPFTFGGGTKVEIKR
notes: Humanized, human IgG4 (S228P) kappa; H5 read as hCTLA4.27VH5, L2 as hCTLA4.27VL2
B7: hCTLA4.27H5L3 (antibody, human IgG4 S228P, kappa, V domains shown)
VH: EVQLLQAGAVLARPGTSVKISCKASGYSFTTYWMNWVKQRPGKGLEWIGMIHPSDSETSLNQAFKDKAKLTAATSASIAYLEFSSLTNEDSAVYYCARIGRRNPYYFDYWGQGTLVTVSS
VL: DIQMTQSPSSLSASVGDTVTITCRPSENLYTNLAWYQQKPGKAPKLLLYGATNLADGVPSRFSGSGSGTDYTLTISSLQSEDFATYYCQHLWGTPFTFGQGTKLEIKR
notes: Humanized, human IgG4 (S228P) kappa; H5 read as hCTLA4.27VH5, L3 as hCTLA4.27VL3
B8: hCTLA4.27H5L5 (antibody, human IgG4 S228P, kappa, V domains shown)
VH: EVQLLQAGAVLARPGTSVKISCKASGYSFTTYWMNWVKQRPGKGLEWIGMIHPSDSETSLNQAFKDKAKLTAATSASIAYLEFSSLTNEDSAVYYCARIGRRNPYYFDYWGQGTLVTVSS
VL: DIQMTQAPSSLSASVGDRVTITCRPSENLYTNLAWYQQKPGKAPKLLLYGATNLADGVPSRFSGSGSGTDYTLTISSLQAEDFATYYCQHLWGTPFTFGGGTKLEIKR
notes: Humanized, human IgG4 (S228P) kappa; H5 read as hCTLA4.27VH5, L5 as hCTLA4.27VL5

Assays:
[1] = biological target: T1, human CTLA-4 (Y166G and Y183G) expressed on CHO-K1.hCTLA-4 cells (human, UniProt P16410 36-223); experiment: CELISA on CHO-K1.hCTLA-4 cells
Method: Binding of the humanized antibodies to hCTLA-4 was studied in CELISA format. CHO-K1.hCTLA-4 cells were seeded in culture medium (DMEM-F12 (Gibco) with 10% Fetal Bovine Serum (Hyclone) and Pen/Strep (Gibco)) in tissue culture plates and cultured at 37° C., 5% CO₂ and 95% humidity until they were confluent. Subsequently, culture medium was removed and cells were incubated for 1 hour at 37° C., 5% CO₂ and 95% humidity with purified hCTLA-4 antibodies (10 μg/ml and dilutions thereof). Next, cells were washed with PBS/0.05% Tween (PBST) and incubated for 1 hour at 37° C., 5% CO₂ and 95% humidity with goat-anti-human IgG-HRP (Southern Biotechnology) or goat-anti-mouse IgG-HRP (Southern Biotechnology). Subsequently, cells were washed 3 times with PBST and anti-hCTLA-4 immunoreactivity was visualized with TMB Stabilized Chromagen (Invitrogen). Reactions were stopped with 0.5 M H₂SO₄ and absorbances were read at 450 and 610 nm.

[2] = biological target: T1, human CTLA-4 (Y166G and Y183G) …; experiment: CELISA, blockade of biotinylated hCD80/Fc binding to CHO-K1.hCTLA-4 cells
Method: CHO-K1.hCTLA-4 cells were seeded in tissue culture plates and incubated at 37° C., 5% CO₂ and 95% humidity in culture medium. Once the cells were confluent culture medium was removed and cells were incubated for 1 hour with the humanized hCTL4.27 antibody variants (10 μg/ml and dilutions thereof) at 37° C., 5% CO₂ and 95% humidity. […] Cells were then washed with PBST followed by addition of Streptavidin-HRP conjugate on the cells, which was incubated for 1 hour at 37° C., 5% CO₂ and 95% humidity. […] Reactions were stopped with 0.5 M H₂SO₄ and absorbances were read at 450 and 610 nm. […] IC50 values represent the concentration at which half of the inhibition is observed.

T1 sequence (P16410 36-223 Y201G/Y218G limits assumed): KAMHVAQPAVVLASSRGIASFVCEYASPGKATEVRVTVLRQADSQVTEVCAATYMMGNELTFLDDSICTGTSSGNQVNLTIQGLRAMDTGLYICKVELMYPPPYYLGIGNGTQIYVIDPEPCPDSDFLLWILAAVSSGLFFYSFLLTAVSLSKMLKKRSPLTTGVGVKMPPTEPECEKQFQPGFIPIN

Binder	EC50 [1] [nM]	IC50 [2] [nM]
B1	0.037	2.55
B2	0.04	2.72
B3	0.045	3.13
B4	0.046	3.44
B5	0.029	5.39
B6	0.042	10.3
B7	0.042	2.57
B8	0.035	1.91
